Reference: patent US20170306005A1 (NASCIENT, published 2017)
Substitutions are numbered along the chain they refer to. Names and notes keep the numbering of the source. Each block holds one binder with its values, some of them ahead of it.

Assays:
[1] = molecular target: T1, mouse tenascin-C rCd4-His-FBG (rat; mouse, UniProt P05540 207-392, limits assumed); experiment: SPR, captured purified IgG4, 37 C
T1 construct: domain: domains 3 and 4; C-terminal FBG fusion; biotinylated in the ELISA screen; also called Mu TNC; mouse TNC rCd4-His-FBG; not shown: 6His tag
T1 sequence (chain (part 1 of 2)): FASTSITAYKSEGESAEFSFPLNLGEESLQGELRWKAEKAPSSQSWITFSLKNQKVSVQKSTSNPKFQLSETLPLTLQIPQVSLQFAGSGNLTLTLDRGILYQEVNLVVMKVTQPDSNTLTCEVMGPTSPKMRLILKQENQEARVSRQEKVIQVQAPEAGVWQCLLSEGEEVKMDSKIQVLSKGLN
T1 sequence (chain (part 2 of 2)): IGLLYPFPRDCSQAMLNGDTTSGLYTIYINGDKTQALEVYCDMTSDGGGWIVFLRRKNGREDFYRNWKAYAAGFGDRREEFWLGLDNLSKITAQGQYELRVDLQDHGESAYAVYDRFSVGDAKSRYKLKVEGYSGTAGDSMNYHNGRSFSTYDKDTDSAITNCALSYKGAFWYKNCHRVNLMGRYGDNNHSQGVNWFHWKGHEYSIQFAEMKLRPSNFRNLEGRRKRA
Experimental: (§1) Detailed kinetic parameters were evaluated for the 9 prioritised IgG4 antibodies. Binding characteristics were determined for interaction with human, rat and dog TNC rCD4-His-FBG, and human TNR rCD4-His-FBG. Kinetic assays followed essentially the same protocols as for the off-rate determinations described above, with some modifications as follows. […] Purified anti-FBG IgG4 was diluted to a concentration of 3.5 nM in PBS, pH 7.4, 0.05% Tween-20 and injected into FC2 at a flow rate of 10 μl/min, 60 s contact time. […] Antigens were prepared by doubling dilution in PBS, pH 7.4, 0.05% Tween-20 (highest concentration 100 nM except mouse rCD4-His-FBG which was 7 nM). Assays were performed at 37° C. (30 μl/min, 120 s contact time; mouse rCD4-His-FBGFBG 10 μl/min, 60 s contact time), with both the flow cell and injection chamber equilibrated to this temperature. As before, kinetic parameters were determined by reference cell subtraction and fitting the sensogram experimental data assuming a 1:1 interaction using BIAevaluation software (GE, BR-1005-97).

[2] = molecular target: T2, rat tenascin-C rCd4-His-FBG (rat, UniProt P05540 207-392, limits assumed); experiment: SPR, captured purified IgG4, 37 C
T2 construct: domain: domains 3 and 4; C-terminal FBG fusion; also called Rat TNC; rat TNC rCD4-His-FBG; not shown: 6His tag
T2 sequence (chain (part 1 of 2)): T1 sequence (chain (part 1 of 2))
T2 sequence (chain (part 2 of 2)): T1 sequence (chain (part 2 of 2)) with A72T
Experimental: as §1

[3] = molecular target: T3, human tenascin-C rCd4-His-FBG (rat; human, UniProt P05540 207-392, limits assumed); experiment: SPR, captured purified IgG4, 37 C
T3 construct: domain: domains 3 and 4; C-terminal FBG fusion; biotinylated in the ELISA and HTRF screens; also called Hu TNC; human TNC rCd4-His-FBG; not shown: 6His tag
T3 sequence (chain (part 1 of 2)): T1 sequence (chain (part 1 of 2))
T3 sequence (chain (part 2 of 2)): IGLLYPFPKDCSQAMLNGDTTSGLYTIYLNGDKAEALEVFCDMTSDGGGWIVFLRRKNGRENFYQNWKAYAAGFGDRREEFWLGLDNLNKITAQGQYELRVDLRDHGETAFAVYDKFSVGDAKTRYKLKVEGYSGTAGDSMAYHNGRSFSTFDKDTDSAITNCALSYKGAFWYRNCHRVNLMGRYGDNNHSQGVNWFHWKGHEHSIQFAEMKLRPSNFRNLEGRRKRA
Experimental: as §1

[4] = molecular target: T4, dog tenascin-C rCD4-His-FBG (rat; dog, UniProt P05540 207-392, limits assumed); experiment: SPR, captured purified IgG4, 37 C
T4 construct: domain: domains 3 and 4; C-terminal FBG fusion; also called Dog TNC; not shown: 6His tag
T4 sequence (chain (part 1 of 2)): T1 sequence (chain (part 1 of 2))
T4 sequence (chain (part 2 of 2)): T1 sequence (chain (part 2 of 2)) with I29L, T34A, S89H, Q104R, E108K, S109T, S124T, N142A, Y152F
Experimental: as §1

[5] = molecular target: T1, mouse tenascin-C rCd4-His-FBG; experiment: SPR off-rate screen, captured IgG4 supernatant, 25 C
Experimental: (§2) The 31 scFv of interest were sub-cloned into a human IgG4 expression vector for generation of antibodies as human IgG4 with a hinge-stabilising mutation (S241P; Angal et al, 1993). […] Briefly, surface plasmon resonance (SPR) experiments were performed using a BIAcore T100 instrument and followed the protocol according to the Human antibody capture kit protocol (GE, BR-1008-39). For off-rate screening, 10,000 response units (RU) of anti-human Fc IgG (GE, BR-1008-39) was immobilised on flow-cells (FC1 and FC2) of a Series 5 CM5 dextran sensor chip (BR-1005-30) using EDC/NHS cross-linking chemistry according to the amine coupling kit protocol (GE, BR-1000-50). Culture supernatants containing expressed IgG4 were diluted 1:2 with 2×PBS-T and injected into FC2 (flowrate 5 μl/min, 60 s contact time) to enable antibody capture at 25° C. […] A fixed concentration of antigen (15 nM of human and mouse TNC rCd4-His-FBG and 100 nM of human TNR rCd4-His-FBG) was injected with a flow-path via FC 1 (reference flow cell) and FC 2 (antibody capture flow cell), with a flow rate of 30 μl/min, and the association and dissociation phases measured over 1 and 5 min time periods, respectively. Regeneration of the binding surface employed 3M MgCl₂ with 30 s contact time. Off rates were determined by reference cell subtraction and fitting the sensogram experimental data assuming a 1:1 interaction using BIAevaluation software (GE, BR-1005-97).

[6] = molecular target: T3, human tenascin-C rCd4-His-FBG; experiment: as above
Experimental: as §2

[7] = molecular target: T5, human tenascin-R rCd4-His-FBG (rat; human, UniProt P05540 207-392, limits assumed); experiment: as above
T5 construct: domain: domains 3 and 4; C-terminal FBG fusion; also called Hu TNR; human TNR rCd4-His-FBG; not shown: 6His tag
T5 sequence (chain (part 1 of 2)): T1 sequence (chain (part 1 of 2))
T5 sequence (chain (part 2 of 2)): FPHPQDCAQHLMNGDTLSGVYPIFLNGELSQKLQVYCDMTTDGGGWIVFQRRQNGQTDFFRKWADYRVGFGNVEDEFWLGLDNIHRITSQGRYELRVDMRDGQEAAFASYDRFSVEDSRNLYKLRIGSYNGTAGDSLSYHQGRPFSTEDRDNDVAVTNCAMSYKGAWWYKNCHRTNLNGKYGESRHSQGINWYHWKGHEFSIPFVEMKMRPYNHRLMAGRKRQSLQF
Experimental: as §2

[8] = molecular target: T5, human tenascin-R rCd4-His-FBG; experiment: SPR, captured purified IgG4, 37 C
Experimental: as §1

Kd [1]: 0.96 nM | koff [1]: 0.000706 s⁻¹ | kon [1]: 733000 M⁻¹ s⁻¹ | Kd [2]: 2.2 nM | koff [2]: 0.00684 s⁻¹ | kon [2]: 3.11e+06 M⁻¹ s⁻¹ | Kd [3]: 0.26 nM | koff [3]: 0.00188 s⁻¹ | kon [3]: 7.27e+06 M⁻¹ s⁻¹ | Kd [4]: 2.85 nM | koff [4]: 0.0187 s⁻¹ | kon [4]: 6.55e+06 M⁻¹ s⁻¹ | koff [5]: 1.7e-06 s⁻¹ | koff [6]: 1.5e-06 s⁻¹
B1: 165_13_B1 human IgG4 (antibody, V domains shown)
VH: QVQLVESGGGLVQPGRSLRLSCAASGFTFDDYAMHWVRQAPGKGLEWVSGISGSGGSTYYADSVKGRFTISRDNAKNSLYLQMNSLRAEDTALYYCAKVMSSMEDAFDIWGQGTMVTVSS
VL: DIQMTQSPASLPTPVGDRVTITCRASQYIQGFLNWYQQKPGKAPKLLIYDASNLETGVPSRFSGSGSGTDFTLTISSLQPEDFATYYCQQSYSTPQTFGQGTKVDIKR
notes: human IgG4 with hinge S241P

koff [5]: 0.00033 s⁻¹ | koff [7]: 0.088 s⁻¹ | koff [6]: < 1e-05 s⁻¹
B3: 162_02_F3 human IgG4 (antibody, V domains shown)
VH: EVRLVQSGAEVKKPGASVKVSCKVSGYTLTELSMHWVRQAPGKGLEWMGGFDPEDGETIYAQKFQGRVTMTEDTSTDTAYMELSSLRSEDTAVYYCATAQKETYALTYWGQGTLVTVSS
VL: DIQMTQSPASLPTSVGDRVTITCRASQYIQGFLNWYQQKPGKAPRLLIYAASTLQDGVPSRFSGSGYGTDFTLTISSLQPEDFATYYCQNQYRGPWTFGQGTKVEIKR
notes: human IgG4 with hinge S241P; also called Antibody 162 02 F3 (derived from 2A5)

koff [5]: 0.00024 s⁻¹ | koff [7]: 0.028 s⁻¹ | koff [6]: 5.3e-06 s⁻¹
B4: 162_02_C6 human IgG4 (antibody, V domains shown)
VH: B3 VH
VL: B3 VL with R93A
notes: human IgG4 with hinge S241P; also called Antibody 162 02 C6 (derived from 2A5)

koff [5]: 0.000167 s⁻¹ | koff [7]: 0.082 s⁻¹ | koff [6]: < 1e-05 s⁻¹
B6: 162_02_H5 human IgG4 (antibody, V domains shown)
VH: B3 VH
VL: B3 VL with R93T
notes: human IgG4 with hinge S241P; also called Antibody 162 02 H5 (derived from 2A5)

koff [5]: 0.002 s⁻¹ | koff [7]: 0.635 s⁻¹ | koff [6]: 1.49e-06 s⁻¹
B8: 162_02_C3 human IgG4 (antibody, V domains shown)
VH: B3 VH
VL: B3 VL with Q89M, N90Q, Q91H, R93D
notes: human IgG4 with hinge S241P; also called Antibody 162 02 C3 (derived from 2A5)

More lines, now with the values behind:

B2: 165_13_D1 human IgG4 (antibody, V domains shown)
VH: B1 VH with V99G, M100T, S101R, S102G, M103E, E104G, A106T
VL: B1 VL
notes: human IgG4 with hinge S241P
koff [5]: 3.9e-06 s⁻¹ | koff [7]: 0.0043 s⁻¹ | koff [6]: 1.4e-07 s⁻¹

B5: 160_01_A4 human IgG4 (antibody, V domains shown)
VH: B3 VH with Y104L, A105G, L106N, T107A, Y108I
VL: B3 VL with N90Q, Q91S, R93S, G94T
notes: human IgG4 with hinge S241P; also called Antibody 160 01 A4 (derived from 2A5)
Kd [1]: 1.23 nM | koff [1]: 0.000146 s⁻¹ | kon [1]: 118000 M⁻¹ s⁻¹ | Kd [2]: 1.49 nM | koff [2]: 0.00189 s⁻¹ | kon [2]: 1.27e+06 M⁻¹ s⁻¹ | Kd [8]: 15.2 nM | fold lower affinity than for human TNC FBG [8]: > 70 fold | koff [8]: 0.00399 s⁻¹ | kon [8]: 260000 M⁻¹ s⁻¹ | Kd [3]: 0.21 nM | koff [3]: 0.0005 s⁻¹ | kon [3]: 2.35e+06 M⁻¹ s⁻¹ | Kd [4]: 0.094 nM | koff [4]: 0.00018 s⁻¹ | kon [4]: 1.9e+06 M⁻¹ s⁻¹ | koff [5]: 5.9e-06 s⁻¹ | koff [7]: 0.011 s⁻¹ | koff [6]: 6.7e-06 s⁻¹

B7: 162_02_D3 human IgG4 (antibody, V domains shown)
VH: B3 VH with K101I, E102H, T103P, Y104L, A105G
VL: B3 VL with N90Q, Q91S, R93S, G94T
notes: human IgG4 with hinge S241P; also called Antibody 162 02 D3 (derived from 2A5)
koff [5]: 1.06e-06 s⁻¹ | koff [7]: 0.0064 s⁻¹ | koff [6]: 3.9e-07 s⁻¹
